This is an account of results in publication PMC4169746 (Molecular cell, 2014).

Where a chain is given by its changes, count along the chain named. In names and notes the source's numbering stands.

For data set [1], the target named is dephosphorylated IRAK4^KD (human) (UniProt Q9NWZ3). Put plainly: SEC-MALS.
In data set [2] the target is dephosphorylated IRAK4^FL (human) (UniProt Q9NWZ3). Put plainly: SEC-MALS.
Data set [3] deals with the molecule itself. Put plainly: AUC.
Data set [4] concerns the molecule itself. The data set can be described thus: SEC-MALS. For orientation: SEC sorts molecules by how far they enter the pores of the column.

A word on the stoichiometry N: it is the number of molecules, sites or subunits per partner or assembly. The Kd is the concentration at which binding is half-saturated. Read a low Kd as a tighter complex.

For “dephosphorylated IRAK4^KD (from UniProt Q9NWZ3 186-454) (domain or fragment)”, in data set [1], the stoichiometry N came out at 2.

In data set [2], “dephosphorylated IRAK4^FL (from UniProt Q9NWZ3 1-460) (enzyme)” yielded a stoichiometry N of 2.

B1: IRAK4^FL-D311N (full-length IRAK4, catalytically inactive, unphosphorylated) (enzyme, human, UniProt Q9NWZ3 1-460, looked up)
chain: MNKPITPSTYVRCLNVGLIRKLSDFIDPQEGWKKLAVAIKKPSGDDRYNQFHIRRFEALLQTGKSPTSELLFDWGTTNCTVGDLVDLLIQNEFFAPASLLLPDAVPKTANTLPSKEAITVQQKQMPFCDKDRTLMTPVQNLEQSYMPPDSSSPENKSLEVSDTRFHSFSFYELKNVTNNFDERPISVGGNKMGEGGFGVVYKGYVNNTTVAVKKLAAMVDITTEELKQQFDQEIKVMAKCQHENLVELLGFSSDGDDLCLVYVYMPNGSLLDRLSCLDGTPPLSWHMRCKIAQGAANGINFLHENHHIHRNIKSANILLDEAFTAKISDFGLARASEKFAQTVMTSRIVGTTAYMAPEALRGEITPKSDIYSFGVVLLEIITGLPAVDEHREPQLLLDIKEEIEDEEKTIEDYIDKKMNDADSTSVEAMYSVASQCLHEKKNKRPDIKKVQQLLQEMTAS
The molecule B1 had a Kd in data set [3] of 2500 ± 400 nM.

B2: IRAK4^KD-D311N (IRAK4 kinase domain, catalytically inactive, unphosphorylated) (domain or fragment, human, UniProt Q9NWZ3 164-460, looked up)
chain: RFHSFSFYELKNVTNNFDERPISVGGNKMGEGGFGVVYKGYVNNTTVAVKKLAAMVDITTEELKQQFDQEIKVMAKCQHENLVELLGFSSDGDDLCLVYVYMPNGSLLDRLSCLDGTPPLSWHMRCKIAQGAANGINFLHENHHIHRNIKSANILLDEAFTAKISDFGLARASEKFAQTVMTSRIVGTTAYMAPEALRGEITPKSDIYSFGVVLLEIITGLPAVDEHREPQLLLDIKEEIEDEEKTIEDYIDKKMNDADSTSVEAMYSVASQCLHEKKNKRPDIKKVQQLLQEMTAS
B2: the “stoichiometry N” value in data set [4] came out at 2.

B3: IRAK4^KD-D311N Y262T (domain or fragment, human, UniProt Q9NWZ3 164-460, looked up)
chain: B2 chain with Y99T
For B3, the binding result in data set [4] is listed as “binds”.
